Patent publication US20210253736A1 (published 2021)
Blank lines part the entries; values can stand above or below the binder they belong to.

Key:
His-tagged human FAP = His-tagged human FAP (human, UniProt Q12884 26-760); assay: Octet
Cyno FAP = target: T1, Cyno FAP; assay: Octet
T1 chain: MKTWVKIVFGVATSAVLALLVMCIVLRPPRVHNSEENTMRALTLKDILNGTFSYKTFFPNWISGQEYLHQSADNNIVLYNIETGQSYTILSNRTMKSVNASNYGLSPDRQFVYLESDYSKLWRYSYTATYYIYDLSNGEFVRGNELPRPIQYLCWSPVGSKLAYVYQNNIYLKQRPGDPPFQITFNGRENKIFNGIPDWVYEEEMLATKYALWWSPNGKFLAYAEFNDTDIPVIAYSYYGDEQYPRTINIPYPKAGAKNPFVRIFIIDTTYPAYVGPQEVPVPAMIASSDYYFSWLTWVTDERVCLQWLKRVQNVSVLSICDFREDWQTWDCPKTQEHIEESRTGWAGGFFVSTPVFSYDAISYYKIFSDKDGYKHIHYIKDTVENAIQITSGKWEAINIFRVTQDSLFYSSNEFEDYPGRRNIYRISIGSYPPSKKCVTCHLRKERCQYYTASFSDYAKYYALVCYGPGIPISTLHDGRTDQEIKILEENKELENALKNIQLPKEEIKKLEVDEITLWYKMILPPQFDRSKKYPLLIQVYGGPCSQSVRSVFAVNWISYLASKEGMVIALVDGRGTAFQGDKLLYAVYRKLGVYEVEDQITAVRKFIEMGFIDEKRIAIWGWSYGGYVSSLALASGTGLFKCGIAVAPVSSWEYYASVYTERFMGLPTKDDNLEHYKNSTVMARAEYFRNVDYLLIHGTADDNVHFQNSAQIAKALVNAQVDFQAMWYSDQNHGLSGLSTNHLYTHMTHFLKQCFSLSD

- Kd (His-tagged human FAP): 0.00482 nM
- Kd (Cyno FAP): 0.0264 nM
B1: XENP23930 (29B11, bottle-opener) (antibody)
chain 1: EVQLLESGGGLVQPGGSLRLSCAASGFTFSSYAMSWVRQAPGKGLEWVSAIIGSGGITYYADSVKGRFTISRDNSKNTLYLQMNSLRAEDTAVYYCAKGWFGGFNYWGQGTLVTVSSASTKGPSVFPLAPSSKSTSGGTAALGCLVKDYFPEPVTVSWNSGALTSGVHTFPAVLQSSGLYSLSSVVTVPSSSLGTQTYICNVNHKPSDTKVDKKVEPKSCDKTHTCPPCPAPPVAGPSVFLFPPKPKDTLMISRTPEVTCVVVDVKHEDPEVKFNWYVDGVEVHNAKTKPREEEYNSTYRVVSVLTVLHQDWLNGKEYKCKVSNKALPAPIEKTISKAKGQPREPQVYTLPPSREEMTKNQVSLTCDVSGFYPSDIAVEWESDGQPENNYKTTPPVLDSDGSFFLYSKLTVDKSRWEQGDVFSCSVMHEALHNHYTQKSLSLSPGK
chain 2: not shown
chain 3: EIVLTQSPGTLSLSPGERATLSCRASQSVTSSYLAWYQQKPGQAPRLLINVGSRRATGIPDRFSGSGSGTDFTLTISRLEPEDFAVYYCQQGIMLPPTFGQGTKVEIKRTVAAPSVFIFPPSDEQLKSGTASVVCLLNNFYPREAKVQWKVDNALQSGNSQESVTEQDSKDSTYSLSSTLTLSKADYEKHKVYACEVTHQGLSSPVTKSFNRGEC

- Kd (His-tagged human FAP): 5.46 nM
- Kd (Cyno FAP): 3.16 nM
B2: XENP23934 (3F2, bottle-opener) (antibody)
chain 1: not shown
chain 2: not shown
chain 3: B1 chain 3
